Assay results: patent publication US20240182592A1 (CHIA TAI TIANQING PHARMACEUTICAL GROUP, published 2024)

How the values were obtained:
human BCMA on cells [1] = target: T1, human BCMA on cells (human, UniProt Q02223 1-184); experiment: flow cytometry, NCI-H929 cells
T1 construct: whole, on cells; also called CHO-hBCMA cells; U266 cells
T1 sequence (looked up): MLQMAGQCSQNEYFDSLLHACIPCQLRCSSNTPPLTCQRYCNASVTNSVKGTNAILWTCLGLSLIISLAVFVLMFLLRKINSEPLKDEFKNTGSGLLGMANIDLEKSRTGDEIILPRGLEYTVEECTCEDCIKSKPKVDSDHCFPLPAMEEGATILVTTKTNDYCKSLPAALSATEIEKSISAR
Protocol: (§1) NCI-H929 cells (BCMA+++), MM1S cells (BCMA++), and RPMI-8226 cells (BCMA+) in the logarithmic growth phase were taken, adjusted to a cell density of 5×10⁶-10×10⁶ cells/mL using RPMI medium (Hyclon, catalog No. SH30809.01) containing 2% FBS (fetal bovine serum), respectively, and seeded in a 96-well U-bottom cell culture plate (Costar, catalog No. 3799) at 50 μL per well. The test antibodies at different concentrations were prepared using the medium described above. […] The antibodies at different concentrations were added to the 96-well cell culture plate described above at 50 μL per well, mixed well and incubated at 4° C. for 1 h. The cells were washed with pre-cooled running buffer (MACS, catalog No. 130-091-221), and the supernatant was discarded. Pre-cooled fluorescent labeled goat anti-human IgG antibodies (Jackson, catalog No. 109-116-170) were added, and the cells were resuspended at 100 μL per well, mixed well and incubated at 4° C. for 30 min. After washing, 100 μL of pre-cooled running buffer was added to resuspend the cells. The cells were mixed well and collected while flowing on an Attune™ NxT flow cytometer, and the data was analyzed using Graphpad Prism5 software. FIGS. 7-9 and Table 11 show the binding ability of the anti-BCMA/anti-CD3 multispecific antibodies to NCI-H929 cells (BCMA+++), MM1S cells (BCMA++), and RPMI-8226 cells (BCMA+).

human BCMA on cells [2] = target: T1, human BCMA on cells; experiment: cell-based or functional assay
human BCMA protein = target: T2, human BCMA protein (human, UniProt Q02223 1-54, limits assumed); experiment: SPR (Biacore T200), antibody captured by anti-hIgG, human BCMA as analyte, 1:1 model
T2 construct: also called hBCMA; Antigen BCMA
T2 sequence (looked up): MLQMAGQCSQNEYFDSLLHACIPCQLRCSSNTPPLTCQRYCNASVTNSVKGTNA
Protocol: (§2) The affinity of the test antibody for human CD3e or human BCMA protein was determined by Biacore T200 (GE) as follows:
(§3) The response signals were detected in real time using Biacore software, and association and dissociation curves were obtained. The buffer used in the experiment was Biacore universal buffer (137 mM NaCl, 2.7 mM KCl, 10 mM Na₂HPO₄.12H₂O, 1.8 mM KH₂PO₄. 0.05% surfactant P-20 (w/v), pH 7.4). […] The flow rate in the flow cell was at 50 μL/min, the association was performed for 240 s, the dissociation was performed for 1400 s, the regeneration was performed using 3 M MgCl (GE) for 60 s, and the baseline was stable. Results were obtained by calculation according to the affinity and kinetics 1:1 binding mode in biacore evaluation software.

human BCMA on cells [3] = target: T1, human BCMA on cells; experiment: cell-based or functional assay; remark: listed apart in the source
[4] = target: T3, human CD3e (Acro, Cat. No. CDE-H5223) (human, UniProt P07766 23-126); experiment: SPR (Biacore T200), antibody captured by anti-hIgG, human CD3e as analyte, 1:1 model
T3 construct: also called human CD3e protein; hCD3e
Protocol: as §2, §3

human BCMA on cells [5] = target: T1, human BCMA on cells; experiment: cell-based or functional assay; remark: listed apart in the source
human BCMA on cells [6] = target: T1, human BCMA on cells; experiment: flow cytometry, MM1S cells
Protocol: as §1

T cell surface CD3 = target: T4, T cell surface CD3 (human, UniProt P07766 23-207); experiment: flow cytometry, human CD3+ T cells
T4 construct: whole, on cells; also called CD3^+ T cells
Protocol: Human PBMC cells were sorted for CD3⁺ T cells using CD3 magnetic beads (Miltenyi, catalog No. 130-097-043): the cryopreserved PBMCs were thawed, and washed by centrifugation twice for counting. Running buffer (MACS, catalog No. 130-091-221) was added in a cell-to-buffer ratio of 10⁷:80 μL, CD3 beads were added in a cell-to-bead ratio of 10⁷:20 μL, and the mixture was mixed well and incubated at 4° C. for 15 min. The cells were washed with buffer in a cell-to-buffer ratio of 10⁷:1-2 mL. After centrifugation, the supernatant was discarded, and 500 μL of buffer was added to resuspend the cell pellet. The LS sorting column (Miltenyi, catalog No. 130-042-401) was placed on the MidiMACS Starting Kit (LS) magnetic rack (Miltenyi, catalog No. 130-091-051). After rinsing, the cell suspension was added and washed thrice. The LS sorting column was removed from the magnetic rack and placed on a clean centrifuge tube and 5 mL buffer was added to collect the sorted CD3⁺ T cells. After counting, the CD3⁺ T cells were adjusted to a cell density of 5×10⁶-10×10⁶ cells/mL using RPMI medium (Hyclone, catalog No. SH30809.01) containing 2% FBS (fetal bovine serum) and seeded in a 96-well U-bottom cell culture plate (Costar, catalog No. 3799) at 50 μL per well. The test antibodies at different concentrations were prepared using the medium described above. […] The antibodies at different concentrations were added to the 96-well cell culture plate described above at 50 μL per well, mixed well and incubated at 4° C. for 1 h. The cells were washed with pre-cooled running buffer (MACS, catalog No. 130-091-221), and the supernatant was discarded. Pre-cooled fluorescent labeled goat anti-human IgG antibodies (Jackson, catalog No. 109-116-170) were added, and the cells were resuspended at 100 μL per well, mixed well and incubated at 4° C. for 30 min. After washing, 100 μL of pre-cooled running buffer was added to resuspend the cells.

T4 sequence (P07766 23-207): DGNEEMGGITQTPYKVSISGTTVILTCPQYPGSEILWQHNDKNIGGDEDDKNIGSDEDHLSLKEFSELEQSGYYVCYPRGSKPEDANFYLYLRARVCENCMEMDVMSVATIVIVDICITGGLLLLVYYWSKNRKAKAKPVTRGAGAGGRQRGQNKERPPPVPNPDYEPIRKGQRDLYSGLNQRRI
T3 sequence (P07766 23-126 limits assumed): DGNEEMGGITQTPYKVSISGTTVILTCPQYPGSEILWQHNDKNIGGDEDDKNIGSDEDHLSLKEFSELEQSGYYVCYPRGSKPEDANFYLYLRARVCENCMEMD

B1: anti-BCMA/anti-CD3 multispecific antibody PC3 (bispecific antibody, human IgG1, lambda, L234A L235A)
chain: QVQLVESGGGLVQPGGSLRLSCAASGFTFNSACMGWFRQAPGKGREGVSRIETGYGGTVYADSVKGRFTISRDNSKNTVYLQMNSLRAEDTAVYYCAAKRSWCTPTWWHELDYNYWGQGTQVTVSSGEPKSSDKTHTCPPCPAPEAAGGPSVFLFPPKPKDTLMISRTPEVTCVVVDVSHEDPEVKFNWYVDGVEVHNAKTKPREEQYNSTYRVVSVLTVLHQDWLNGKEYKCKVSNKALAAPIEKTISKAKGQPREPQVCTLPPSREEMTKNQVSLSCAVKGFYPSDIAVEWESNGQPENNYKTTPPVLDSDGSFFLVSKLTVDKSRWQQGNVFSCSVMHEALHNHYTQKSLSLSPGK
heavy: EVQLVESGGGLVQPGGSLRLSCAASGFTFNTYAMNWVRQAPGKGLEWVARIRSKYNNYATYYADSVKDRFTISRDDSKNTAYLQMNNLKTEDTAMYYCVRHGNFGNSYVSWFAYWGQGTLVTVSSASTKGPSVFPLAPSSKSTSGGTAALGCLVKDYFPEPVTVSWNSGALTSGVHTFPAVLQSSGLYSLSSVVTVPSSSLGTQTYICNVNHKPSNTKVDKKVEPKSCDKTHTCPPCPAPEAAGGPSVFLFPPKPKDTLMISRTPEVTCVVVDVSHEDPEVKFNWYVDGVEVHNAKTKPREEQYNSTYRVVSVLTVLHQDWLNGKEYKCKVSNKALAAPIEKTISKAKGQPREPQVYTLPPCREEMTKNQVSLWCLVKGFYPSDIAVEWESNGQPENNYKTTPPVLDSDGSFFLYSKLTVDKSRWQQGNVFSCSVMHEALHNRFTQKSLSLSPGK
light: QVQLVESGGGLVQPGGSLRLSCAASGYSSNVACMAWYRQAPGKGLEWVATIVADFGTTNYAASVKGRFTISQDNSKNTVYLQMNSLRAEDTAVYYCAATQRGGIDWCDEINYWGQGTLVTVSSGGGGSELVVTQEPSLTTSPGGTVTLTCRSSTGAVTTSNYANWVQQKPGQAPRGLIGGTNKRAPGTPARFSGSLLGGKAALTITGVQPEDEAEYYCALWYSNLWVFGGGTKLTVLGQPKANPTVTLFPPSSEELQANKATLVCLISDFYPGAVTVAWKADGSPVKAGVETTKPSKQSNNKYAASSYLSLTPEQWKSHRSYSCQVTHEGSTVEKTVAPTECS
notes: Trivalent; three chains; human IgG1 knobs-into-holes Fc
How did the EC50 (human BCMA on cells [1]) turn out when B1 was run?
Its EC50 is 0.837 nM.

What about the “Top(MFI)” value (human BCMA on cells [1]) of the same binder?
Its value is 223000 MFI.

What about the “Lysis EC50, MM1S cells with human PBMCs (E:T 10:1, 24 h, LDH release)” value (human BCMA on cells [2]) of the same binder?
The value was 0.0407 nM.

And the “Maximum lysis rate, MM1S cells with human PBMCs” value (human BCMA on cells [2])?
The value was 36%.

What about the Kd (human BCMA protein) of the same binder?
Its Kd is 0.0347 nM.

What about the “Lysis EC50, NCI-H929 cells with human PBMCs (E:T 10:1, 24 h, LDH release)” value (human BCMA on cells [3]) of the same binder?
Its value is 0.187 nM.

And the “Maximum lysis rate, NCI-H929 cells with human PBMCs” value (human BCMA on cells [3])?
The value was 35%.

What about the Kd [4] of the same binder?
The Kd was 1.17 nM.

And the “Lysis EC50, RPMI-8226 cells with human PBMCs (E:T 10:1, 24 h, LDH release)” value (human BCMA on cells [5])?
The value was 0.0142 nM.

And the “Maximum lysis rate, RPMI-8226 cells with human PBMCs” value (human BCMA on cells [5])?
Its value is 39%.

What about the EC50 (human BCMA on cells [6]) of the same binder?
The EC50 was 0.338 nM.

What about the “Top(MFI)” value (human BCMA on cells [6]) of the same binder?
The value was 124000 MFI.

And the EC50 (T cell surface CD3)?
Its EC50 is 85.8 nM.

What about the “Top(MFI)” value (T cell surface CD3) of the same binder?
Its value is 98400 MFI.

B2: anti-BCMA/anti-CD3 multispecific antibody BC24 (bispecific antibody, human IgG1, lambda, L234A L235A)
chain: QVQLVESGGGSVQAGGSLRLSCAASGYSSNVACMAWYRQAPGKEREWVATIVADFGTTNYAASVKGRFTISQDNAKNTVYLQMNSLKPEDSAMYYCAATQRGGIDWCDEINYWGQGTLVTVSSGGGGSGGGGSQVQLVESGGGSVQAGGSLRLSCAASGVTFNSACMGWFRQAPGKEREGVARIETGYGGTVYADSVKGRFTISRDNAKNTVYLQMNSLKPEDTAMYYCAAKRSWCTPTWWHELDYNYWGQGTQVTVSSGEPKSSDKTHTCPPCPAPEAAGGPSVFLFPPKPKDTLMISRTPEVTCVVVDVSHEDPEVKFNWYVDGVEVHNAKTKPREEQYNSTYRVVSVLTVLHQDWLNGKEYKCKVSNKALAAPIEKTISKAKGQPREPQVCTLPPSREEMTKNQVSLSCAVKGFYPSDIAVEWESNGQPENNYKTTPPVLDSDGSFFLVSKLTVDKSRWQQGNVFSCSVMHEALHNHYTQKSLSLSPGK
heavy: EVQLVESGGGLVQPGGSLRLSCAASGFTFNTYAMNWVRQAPGKGLEWVARIRSKYNNYATYYADSVKDRFTISRDDSKNTAYLQMNNLKTEDTAMYYCVRHGNFGNSYVSWFAYWGQGTLVTVSSASTKGPSVFPLAPSSKSTSGGTAALGCLVKDYFPEPVTVSWNSGALTSGVHTFPAVLQSSGLYSLSSVVTVPSSSLGTQTYICNVNHKPSNTKVDKKVEPKSCDKTHTCPPCPAPEAAGGPSVFLFPPKPKDTLMISRTPEVTCVVVDVSHEDPEVKFNWYVDGVEVHNAKTKPREEQYNSTYRVVSVLTVLHQDWLNGKEYKCKVSNKALAAPIEKTISKAKGQPREPQVYTLPPCREEMTKNQVSLWCLVKGFYPSDIAVEWESNGQPENNYKTTPPVLDSDGSFFLYSKLTVDKSRWQQGNVFSCSVMHEALHNRFTQKSLSLSPGK
light: ELVVTQEPSLTTSPGGTVTLTCRSSTGAVTTSNYANWVQQKPGQAPRGLIGGTNKRAPGTPARFSGSLLGGKAALTITGVQPEDEAEYYCALWYSNLWVFGGGTKLTVLGQPKANPTVTLFPPSSEELQANKATLVCLISDFYPGAVTVAWKADGSPVKAGVETTKPSKQSNNKYAASSYLSLTPEQWKSHRSYSCQVTHEGSTVEKTVAPTECS
notes: Trivalent: 1A10 VHH and 1A11 VHH in tandem on one Fc polypeptide, anti-CD3 Fab on the other; human IgG1 knobs-into-holes Fc
What does the source list for B2?
EC50 (human BCMA on cells [1]): 1.56 nM; Top(MFI) (human BCMA on cells [1]): 186000 MFI; Lysis EC50, MM1S cells with human PBMCs (E:T 10:1, 24 h, LDH release) (human BCMA on cells [2]): 0.00937 nM; Maximum lysis rate, MM1S cells with human PBMCs (human BCMA on cells [2]): 21%; Kd (human BCMA protein): 0.0627 nM; Lysis EC50, NCI-H929 cells with human PBMCs (E:T 10:1, 24 h, LDH release) (human BCMA on cells [3]): 0.0218 nM; Maximum lysis rate, NCI-H929 cells with human PBMCs (human BCMA on cells [3]): 40%; Kd [4]: 0.286 nM; Lysis EC50, RPMI-8226 cells with human PBMCs (E:T 10:1, 24 h, LDH release) (human BCMA on cells [5]): 0.0113 nM; Maximum lysis rate, RPMI-8226 cells with human PBMCs (human BCMA on cells [5]): 29%; EC50 (human BCMA on cells [6]): 0.535 nM; Top(MFI) (human BCMA on cells [6]): 107000 MFI; EC50 (T cell surface CD3): 38.3 nM; Top(MFI) (T cell surface CD3): 163000 MFI
